# Results reported in patent US20250035612A1 (NEURIMMUNE, published 2025).
# Ends that are not written are not given here. * marks the point of attachment. Biotin = O=C1N[C@H]2[C@H](CS[C@H]2CCCCC(=O)*)N1; Ahx = NCCCCCC(=O)O
# T1: Biotin.TTR40-49
# T1 construct: also called Biotin; TTR40-449; biotinylated TTR peptide TTR40-49
# T1 peptide: {Biotin-Ahx}-TWEPFASGKT
# T2: TTR peptide TTR40-49
# T2 peptide: H-TWEPFASGKT-OH
# B1: anti-TTR antibody NI-301.37F1 (antibody, V domains shown)
# VH: QVQLQESGPGLVKPSETLSLTCSVSGGSIISRSSYWGWIRQPPGKGLEWIGGIYHSGNTYDNPSLKSRLTMSVDTSKNQFSLNLRSVTAADTAVYYCARIVPGGDAFDIWGQGTMVTVSS
# VL: DIQMTQSPSSLSASVGDRVTIACRASQSVGTYLNWYQQKRGKAPKLLIFAASSLQSGVPSRFSGSGSGTDFTLTISSLQPEDFATYYCQQSYSSPPTFGQGTKVEIK
# notes: detected with anti-human IgG; also called 37F1_3
# Columns and labels:
# [1] = target: T3, cyclic peptide TTR34-54cyc (cyclized via disulfide bridge between two cysteine residues within the poly-glycine stretch); test: cell-based or functional assay
# T3 sequence (peptide, as listed by the source): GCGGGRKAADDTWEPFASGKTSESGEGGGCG
# Biotin.TTR34-54cyc [2] = target: T4, Biotin.TTR34-54cyc (N-terminal Biotin-(Ahx): amino hexanoic acid spacer between the N-terminus and the biotin residue; cyclized via disulfide bridge between the two cysteine residues); test: ELISA (ELISA-2), plate coated with Biotin.TTR34-54cyc at 10 µg/ml, antibody titrated
# T4 construct: Biotinylated form of TTR34-54cyc; also called biotinylated TTR34-54cyc
# T4 sequence (peptide, as listed by the source): as above
# Description: (§1) In particular, 96-well microplates were coated for 1 hour at 37° C. with TTR34-54cyc, TTR40-49, Biotin. TTR40-449, and mis-WT-TTR (FLISA-1) and with TTR34-54cyc, Biotin. TTR34-54cyc, TTR40-49, Biotin. TTR40-449, and mis-WT-TTR (ELISA-2), respectively, wherein each target antigen has been diluted to a concentration of 10 μg/ml in PBS buffer pH 7.4. Non-specific binding sites were blocked for 1 hour at room temperature (RT) with a blocking buffer containing 2% bovine serum albumin (BSA) and 0.1% tween-20 in PBS buffer. […] Binding was determined using an anti-human IgG antibody conjugated with horseradish peroxidase (HRP), followed by measurement of HRP activity in a standard colorimetric assay (ThermoFisher Scientific Inc., Waltham, Massachusetts, USA). Data were analyzed with the Prism software from GraphPad. ECso values were estimated using non-linear regression of individual data points using log (agonist) versus response model with variable slope. Data fitting was performed with the least square regression method.
# [3] = target: T3, cyclic peptide TTR34-54cyc; test: ELISA-1, coated TTR34-54cyc at 10 µg/ml, anti-human IgG-HRP detection
# Description: as §1
# [4] = target: T3, cyclic peptide TTR34-54cyc; test: ELISA-2, coated TTR34-54cyc at 10 µg/ml, anti-human IgG-HRP detection
# Description: as §1
# [5] = target: T3, cyclic peptide TTR34-54cyc; test: ELISA, coated peptide at 10 µg/ml, reference mis.WT-TTR
# Description: as §1
# Biotin.TTR34-54cyc [6] = target: T4, Biotin.TTR34-54cyc; test: as above
# Description: as §1
# [7] = target: T3, cyclic peptide TTR34-54cyc; test: cell-based or functional assay; remark: listed apart in the source
# [8] = target: fluorescently labeled misfolded TTR aggregates of the monomeric F87M/L110M-TTR mutant (mis.TTR-488) (UniProt P02766 21-147); test: cell-based or functional assay
# Biotin.TTR40-49 = target: T1, Biotin.TTR40-49; test: ELISA-1 and ELISA-2, peptide coated at 10 µg/ml, anti-human IgG-HRP detection
# Description: as §1
# TTR peptide TTR40-49 = target: T2, TTR peptide TTR40-49; test: as above
# Description: as §1
binder,measurement,setting,value
B1,"EC50 (ng/mL) of the FcγR1 ADCP reporter assay, plate coated with TTR34-54cyc; reference sample (RS) 100%, run with the 50% test sample",[1],19.8 ng/mL
same,"EC50 (ng/mL) of the FcγR1 ADCP reporter assay, plate coated with TTR34-54cyc; reference sample (RS) 100%, run with the 70% test sample",[1],19.8 ng/mL
same,"EC50 (ng/mL) of the FcγR1 ADCP reporter assay, plate coated with TTR34-54cyc; reference sample (RS) 100%, run with the 130% test sample",[1],17.6 ng/mL
same,"EC50 (ng/mL) of the FcγR1 ADCP reporter assay, plate coated with TTR34-54cyc; reference sample (RS) 100%, run with the 150% test sample",[1],19.3 ng/mL
same,"EC50 (ng/mL) of the FcγR1 ADCP reporter assay, plate coated with TTR34-54cyc; test sample 50% (nominal concentration)",[1],39 ng/mL
same,"EC50 (ng/mL) of the FcγR1 ADCP reporter assay, plate coated with TTR34-54cyc; test sample 70% (nominal concentration)",[1],30.4 ng/mL
same,"EC50 (ng/mL) of the FcγR1 ADCP reporter assay, plate coated with TTR34-54cyc; test sample 130% (nominal concentration)",[1],13.6 ng/mL
same,"EC50 (ng/mL) of the FcγR1 ADCP reporter assay, plate coated with TTR34-54cyc; test sample 150% (nominal concentration)",[1],13.5 ng/mL
same,EC50 (read off the curve),Biotin.TTR34-54cyc [2],~0.6 nM
same,EC50,[3],0.027 nM
same,EC50,[4],0.66 nM
same,fold stronger binding than to mis. WT-TTR,[5],~10 fold
same,fold stronger binding than to mis. WT-TTR,Biotin.TTR34-54cyc [6],~10 fold
same,"EC50 of the FcγR1 ADCP reporter assay, first experiment (FIG. 11); plate coated with 3 µg/mL TTR34-54cyc, NI-301.37F1 RS dilutions 500-0.4 ng/ml",[7],0.0198 µg/mL
same,"EC50 of the mis.TTR-488 phagocytosis dose-response in THP1 cells, 0.7x_NI-301.37F1_3 (nominal concentration; sample at 0.7x of the reference)",[8],1.5 nM
same,"EC50 of the mis.TTR-488 phagocytosis dose-response in THP1 cells, 1x_NI-301.37F1_3",[8],1.2 nM
same,"EC50 of the mis.TTR-488 phagocytosis dose-response in THP1 cells, NI-301.37F1_W1 GMP DS",[8],0.54 nM
same,"EC50 of the mis.TTR-488 phagocytosis dose-response in THP1 cells, NI-301.37F1_W1 non-GMP DP",[8],0.92 nM
same,binding result,Biotin.TTR40-49,no binding
same,binding result,TTR peptide TTR40-49,no binding
